T1: OsMADS6 aa 50-200 (Oryza sativa, UniProt Q6EU39 50-200)
T1 construct: bait, Gal4 DBD fusion; also called PN20233
T1 sequence: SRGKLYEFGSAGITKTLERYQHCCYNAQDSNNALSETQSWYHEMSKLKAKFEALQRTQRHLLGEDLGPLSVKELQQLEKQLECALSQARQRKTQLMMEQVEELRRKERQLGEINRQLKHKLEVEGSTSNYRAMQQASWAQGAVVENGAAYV

T2: OsCYCOS2 aa 50-233 (Oryza sativa, UniProt A2YH60 50-233)
T2 construct: bait, Gal4 DBD fusion; also called PN20257; O. sativa Cyclin OsCYCOS2
T2 chain: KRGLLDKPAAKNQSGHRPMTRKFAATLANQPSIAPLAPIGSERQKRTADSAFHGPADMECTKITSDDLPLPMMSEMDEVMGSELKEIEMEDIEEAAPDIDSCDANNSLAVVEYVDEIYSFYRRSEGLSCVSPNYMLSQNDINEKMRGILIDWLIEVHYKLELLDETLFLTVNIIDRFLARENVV

T3: OsCYCOS2 aa 170-310 (Oryza sativa, UniProt A2YH60 170-310)
T3 construct: bait, Gal4 DBD fusion; also called PN20257
T3 sequence: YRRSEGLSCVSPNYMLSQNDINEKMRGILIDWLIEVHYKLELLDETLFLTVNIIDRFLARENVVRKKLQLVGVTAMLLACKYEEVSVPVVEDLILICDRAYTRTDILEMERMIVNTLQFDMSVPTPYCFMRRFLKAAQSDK

B1: OsMADS5 aa 61-171 (other)
chain: SCMYKTLERYRSCNYNLNSCEASAALETELSNYQEYLKLKTRVEFLQTTQRNLLGEDLVPLSLKELEQLENQIEISLMNIRSSKNQQLLDQVFELKRKEQQLQDANKDLKR
notes: prey, AD fusion; also called PN20770
B2: OsMADS15 aa 73-183 (other)
chain: YSYAEKALISAESESEGNWCHEYRKLKAKIETIQKCHKHLMGEDHESLNLKELQQLEQQLESSLKHIISRKSHLMLESISELQKKERSLQEENKALQKELVERQKNVRGQQ
notes: prey, AD fusion; also called PN20842
B3: OsBAA81880 aa 120-228 (other)
chain: IDELQQLEKNLEAGLHRVMLTKDQQFMEQISELQRKSSQLAEENMQLRNQVSQISPAEKQVVDTENFVTEGQSSESVMTALHSGSSQSQDNDDGSDVSLKLGLPCGAWK
notes: prey, AD fusion; also called PN20837
B4: OsFDRMADS8 aa 91-233 (other)
chain: KDDTLGLAKKLEALDESRRKILGENLEGCSIEELRGLEMKLEKSLHNIRLKKTELLERQIAKLKEKERTLLKDNENLRGKHRNLEAAALVANHMTTTTAPAAWPRDVPMTSSTAGAADAMDVETDLYIGLPGTERSSNRSETG
notes: prey, AD fusion; also called PN20698
B5: Os008339 aa 108-226 (other)
chain: ELAETSLRLRQMRGEELHRLNVEQLQELEKSLESGLGSVLKTKSKKILDEIDGLERKRMQLIEENLRLKEQVSRMSRMEEMQPGPDSEIVYEEGQSSESVTNASYPRPPPDNDYSSDTS
notes: prey, AD fusion; also called PN20847
B6: OsMADS18 aa 64-249 (other)
chain: EGILERYQRYSFDERAVLEPNTEDQENWGDEYGILKSKLDALQKSQRQLLGEQLDTLTTKELQQLEHQLEYSLKHIRSKKNQLLFESISELQKKEKSLKNQNNVLQKLMETEKEKNNAIINTNREEQNGATPSTSSPTPVTAPDPIPTTNNSQSQPRGSGESEAQPSPAQAGNSKLPPWMLRTSHT
notes: prey, AD fusion; also called PN20912
B7: OsMADS7 aa 95-259 (other)
chain: RESEQLKASRNEYLKLKARVENLQRTQRNLLGPDLDSLGIKELESLEKQLDSSLKHVRTTRTKHLVDQLTELQRKEQMVSEANRCLRRKLEESNHVRGQQVWEQGCNLIGYERQPEVQQPLHGGNGFFHPLDAAGEPTLQIGYPAEHHEAMNSACMNTYMPPWLP
notes: prey, AD fusion; also called PN21116
B8: OsPN29968 aa 12-113 (other)
chain: LVNNEDVVAIKQMQHLILGRLQDSNAVLTHFNEYSEQCFAEVSNDFAGKTRLLKSMKADLDHIFLKLRGMKSRLAATYPDAFPTGAMAETMDQRPDLESPLD
notes: prey, AD fusion; also called Novel Protein PN29968, Similar to A. thaliana Unknown Protein BAB01990
B9: OsPN29958 aa 3-304 (other)
chain: QNEVSALEKQTLSLANDCLQSNKLRMEENALSTQVLKTNMRSSGDQNTVRTVKDMELQKLHGTIKALQKVVTDTAVLLDQERLDFNANLQEARKQIEVLKLKEILDDDLIEMNYEQMLKDIQLDLIQISSGNKTGSLGQANKTVAQANEKMLDSHGIVGASSSHVRNDLRPPQSESFERDNYKRPPSELMVVKELSIDKQELPRSITTEPHQEWKNKVIERLASDAQRLNALQSSIQELKTNTEASEGLELESVRYQIREAEGFITQLIDSNGKLSKKAEEFTSEDGLDGDNIDLRSRHQRK
notes: prey, AD fusion; also called Novel Protein PN29958, Fragment, centromere homologue
B10: OsPN29966 aa 8-216 (other)
chain: GTISAVEQESARQIASKDAEIAFLNEKLHQFRNSGLSLSEGRDKLYEEIYNLRQQLVTLSKSLLNSEWGLSVSHYNNFEGAEDESKHRGNEKSSKDGITKENGSKGSNEDIFIDPTVLKHMDRDELVAHFNKMMNQMKRQHDSTLQEKTEEIFRLKRENLKKEGPNPWHLRNNKEFELMRKKIWEVITKLDEVLVENKRTIRIKSDVFP
notes: prey, AD fusion; also called Novel Protein PN29966, Fragment, myosin heavy chain
B11: OsPN29967 aa 16-174 (other)
chain: PPTRRALTLTLTLTLLLSLAMSEPASPPPAMPEDAAPPQPQPEPAVPAGEEAAPSLERKEELLPVEEKISELDESQSQLMGRLRGLKEDLLNWRSSLDTQVTKYKSELSDIKTALNSEIEQLRSDFQELRTTLKKQQEDVSNSLKNLGLQDATDNDGNK
notes: prey, AD fusion; also called Novel Protein PN29967, Fragment, unknown
B12: OsPN29882 aa 107-273 (other)
chain: ALMVERLEGSRQKLLMEIDSQSSEIEKLFEENSALSTSYQEAVAVTMQWENQVKDCLKQNEELRSHLEKLRLEQATLLKTSNTTIQPDGQNETSISFPPEFVTENLSLKDQLIKEQSRSEGLSAEIMKLSAELRKAVQAQNNLARLYRPVLRGIESNLMKMKQETYA
notes: prey, AD fusion; also called Novel Protein PN29882, Fragment, myosin heavy chain
B13: OsPN29961 aa 10-215 (other)
chain: QKDGAPDEGSVGVPGRKTKETVTAADAIIDALDTAEEEVKRLDQHQEGQNNGNGTTFQPNVIMQGQSPSDYVLNVVSNVRPNDLEQALLSLPFSDALKIMSYLKEWSMVPLKVELVCRVCLVLLQTHHSQLTTTPSARSILTELKGILYSRVKECKDAIGFNLAAMDHIKELLAMRSDAPFRDARAKLMEIRQEQSRRSDRSDGAE
notes: prey, AD fusion; also called Novel Protein PN29961, Fragment, Similar to A. thaliana Unknown Protein BAB02349
B14: PN23136 aa 66-191 (other)
chain: LRERIHKTRQHITQLVKDTSEKLKQASEADHRVEVSASKKIADAKLAKDFQAVLKEFQKAQRLAVEREAAYAPFISQAGLPQSYNSSEVNNGADKLAEQRTALLESRRQELVFLDNEIVFNEAVIE
notes: prey, AD fusion; also called Hypothetical Protein BAA85200 Similar to Syntaxin Related Protein AtVam3p
B15: PN20815 aa 1-134 (other)
chain: MDKELKERDEKYVELDTKFQRLHKRAKQRIQDIQKEKDDMEARFNEINQKAEQASSLQSAAQQELERARQQASEALRSMDAERQQLRTVNSKLRTNLDEARVALEARNNVLEKLRQSMFEKEQLLEQTQASLQS
notes: prey, AD fusion; also called Hypothetical Protein PN20815 Similar to A. thaliana Myosin Heavy Chain, Fragment
B16: OsPN23484 aa 64-212 (other)
chain: RELQAELDAERASAETATSEAMLMIERLQREKAAAQMEARQFRRYAEGREDREREVQEELASLSDLAASYHSRLQSHGIDPDSFSDDGEEEQHDEEDGEEVEQIDTAALQTDGSSGGDSIGGMQVKAMVDDDEEEQFTPVEKEFEYTVD
notes: prey, AD fusion
B17: OsPN30854 aa 100-169 (other)
chain: RIDVVNRQLKPLGKTCVKKEKEYKEILEAYNEKNKEKALLVNRLIELVSESERMRMKKLEELNKTVDSLY
notes: prey, AD fusion; also called Novel Protein PN30854, unknown
B18: OsPN29942 aa 1-159 (other)
chain: EHESDEEKNEVDTSNEIKEIVIDDMEPKVFQAGFLFMYRDNLVGDDELSASSSDCSIFDTLAGKLLAAADRYELPRLRLLCESYLCKHISVNSVATTLALADRHHAMELKSVCLKFAAENLSAVIRTDGFDYLKDNCPALQSEILRTVAGCEEECSSGG
notes: prey, AD fusion
B19: PN26210 aa 364-613 (other)
chain: VGYNSIEAEDWELATNGEEMSKLEALLLDKNRKMEHELTQLKVKISEKSNLLEEAEKKIAELTAKAEEQQKLILKLEDDILKGYSSTDRRTSLLNDWDLQEIGSNEVAEGTDPRHAPQDQDQSSMLKVICNQRDRFRTRLRETEEELRRLKEKYEMLVVELEKTKADNVQLYGKIRYVQDYSHEKIVSRGPKKYAEDVESGSSDVETKYKKMYEDDINPFAAFSKKEKDQRYKELGLRDKITLSSGRFLL
notes: prey, AD fusion; also called Putative CCAAT Displacement Protein
B20: PN26210 aa 422-646 (other)
chain: IAELTAKAEEQQKLILKLEDDILKGYSSTDRRTSLLNDWDLQEIGSNEVAEGTDPRHAPQDQDQSSMLKVICNQRDRFRTRLRETEEELRRLKEKYEMLVVELEKTKADNVQLYGKIRYVQDYSHEKIVSRGPKKYAEDVESGSSDVETKYKKMYEDDINPFAAFSKKEKDQRYKELGLRDKITLSSGRFLLGNKYARTFIFFYTIGLHLLVFTLLYRMSALSYL
notes: prey, AD fusion; also called O. sativa Putative CCAAT Displacement Protein
B21: OsPN23484 aa 77-233 (other)
chain: AETATSEAMLMIERLQREKAAAQMEARQFRRYAEGREDREREVQEELASLSDLAASYHSRLQSHGIDPDSFSDDGEEEQHDEEDGEEVEQIDTAALQTDGSSGGDSIGGMQVKAMVDDDEEEQFTPVEKEFEYTVDVRCASSTTKVSGAVVVGEFMG
notes: prey, AD fusion
B22: OsPN23484 aa 90-245 (other)
chain: RLQREKAAAQMEARQFRRYAEGREDREREVQEELASLSDLAASYHSRLQSHGIDPDSFSDDGEEEQHDEEDGEEVEQIDTAALQTDGSSGGDSIGGMQVKAMVDDDEEEQFTPVEKEFEYTVDVRCASSTTKVSGAVVVGEFMGEGNAAAGGLYAR
notes: prey, AD fusion
B23: Os018989-4003 aa 9-179 (other)
chain: AAAASAAPGLANLLIREGAGLPSRPERYPPFRPCTSDSFAPISREGDDIPPQKKSVSLRSGGGGNAAEREEGGANRNGKKEKTGAQRITGWGLREFSKIVSKKVEAKGRTTYNEVADEIFAELKSITQNGLEFDEKNIRRRVYDAFNVLIAIRVIAKDKKEIKWMGLTNYR
notes: prey, AD fusion; also called PN21044; Hypothetical Protein 018989-4003, Similar to Triticum sp; DP Protein
B24: Os018989-4003 aa 177-294 (other)
chain: NYRYEKIQKLEEVHKELITRIKNKKKLLQEIEKQFDDLQNITLRNQASQRPAESVNGILLPFLLIKTSRKARVEIEISEDSKFARFDFNGAPFTMHDDVSILEAIRRNKGRAGLSIHP
notes: prey, AD fusion; also called PN21044

Target: T1, OsMADS6 aa 50-200
Assay: Y2H; output trait library
Outline: (§1)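 Myriad Genetics Inc. (Salt Lake City, Utah) supplied the automated, high-throughput yeast two-hybrid assay used to detect protein-protein interactions. A bait clone encoding a defined amino-acid fragment of a rice protein was screened against a rice prey library, either the input trait or the output trait library. To identify the interacting proteins, prey clones were retrieved and their encoding sequences were compared against databases by BLAST.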

Binder | binding result
B1 | binds
B2 | binds
B3 | binds
B4 | binds
B5 | binds
B6 | binds
B7 | binds

Target: T2, OsCYCOS2 aa 50-233
Assay: Y2H; output trait library
Outline: as §1

Binder | binding result
B8 | binds
B9 | binds
B10 | binds
B11 | binds
B12 | binds
B13 | binds
B14 | binds

Target: T3, OsCYCOS2 aa 170-310
Assay: Y2H; output trait library
Outline: as §1

Binder | binding result
B15 | binds
B16 | binds
B17 | binds
B18 | binds
B19 | binds
B20 | binds
B21 | binds
B22 | binds

Target: T4, OsE2F1 aa 100-250 (Oryza sativa)
T4 construct: bait, Gal4 DBD fusion; also called PN19758; O. sativa E2F Homolog
Assay: Y2H; output trait library
Outline: as §1

T4 sequence (chain, as listed by the source): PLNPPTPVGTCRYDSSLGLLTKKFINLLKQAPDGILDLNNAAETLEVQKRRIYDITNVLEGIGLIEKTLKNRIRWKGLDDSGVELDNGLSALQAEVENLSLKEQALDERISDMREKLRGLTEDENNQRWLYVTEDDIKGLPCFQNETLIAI

Binder | binding result
B23 | binds
B24 | binds
